According to patent publication US20130053541A1, “METHODS FOR DISCOVERING MOLECULES THAT BIND TO PROTEINS” (LYNNTECH, INC., priority 2011, published 2013):
Where no end group is shown, it is not given here.

T1: ERα (Homo sapiens, UniProt P03372)
T1 sequence (P03372 1-595): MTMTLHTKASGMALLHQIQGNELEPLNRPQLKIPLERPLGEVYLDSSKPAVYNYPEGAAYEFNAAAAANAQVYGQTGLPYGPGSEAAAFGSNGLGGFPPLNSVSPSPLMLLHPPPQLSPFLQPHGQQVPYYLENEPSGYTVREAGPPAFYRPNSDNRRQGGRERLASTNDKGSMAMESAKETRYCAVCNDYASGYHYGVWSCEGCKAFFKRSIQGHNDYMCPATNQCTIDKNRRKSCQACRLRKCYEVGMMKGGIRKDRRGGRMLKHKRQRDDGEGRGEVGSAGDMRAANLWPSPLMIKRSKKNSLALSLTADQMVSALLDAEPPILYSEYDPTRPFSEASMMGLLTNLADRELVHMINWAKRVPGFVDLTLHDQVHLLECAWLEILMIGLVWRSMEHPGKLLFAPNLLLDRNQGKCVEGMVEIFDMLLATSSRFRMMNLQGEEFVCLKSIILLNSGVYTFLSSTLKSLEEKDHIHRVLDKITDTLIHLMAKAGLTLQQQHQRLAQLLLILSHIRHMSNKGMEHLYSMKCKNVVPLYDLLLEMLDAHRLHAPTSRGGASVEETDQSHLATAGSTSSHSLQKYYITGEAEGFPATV

T2: native human ESRRG protein (Estrogen-receptor related receptor gamma) (human, UniProt P62508 229-458, limits assumed)
T2 construct: the screened protein is called 'native human ESRRG protein'; also called ESSRG; ERRγ
T2 sequence (looked up): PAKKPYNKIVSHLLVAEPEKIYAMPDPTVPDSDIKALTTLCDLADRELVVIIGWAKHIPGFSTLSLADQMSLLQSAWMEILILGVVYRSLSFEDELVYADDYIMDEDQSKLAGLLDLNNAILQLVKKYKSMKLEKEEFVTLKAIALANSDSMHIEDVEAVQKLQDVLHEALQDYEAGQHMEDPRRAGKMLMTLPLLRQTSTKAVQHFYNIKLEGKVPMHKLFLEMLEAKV

T3: Annexin A5 (Homo sapiens (Human), UniProt P08758 2-320, directly labeled with a fluorescent tag (Cy 5 per paragraph 324; Cy3 per paragraph 57))
T3 construct: also called ANXA5; ANX-A5
T3 sequence: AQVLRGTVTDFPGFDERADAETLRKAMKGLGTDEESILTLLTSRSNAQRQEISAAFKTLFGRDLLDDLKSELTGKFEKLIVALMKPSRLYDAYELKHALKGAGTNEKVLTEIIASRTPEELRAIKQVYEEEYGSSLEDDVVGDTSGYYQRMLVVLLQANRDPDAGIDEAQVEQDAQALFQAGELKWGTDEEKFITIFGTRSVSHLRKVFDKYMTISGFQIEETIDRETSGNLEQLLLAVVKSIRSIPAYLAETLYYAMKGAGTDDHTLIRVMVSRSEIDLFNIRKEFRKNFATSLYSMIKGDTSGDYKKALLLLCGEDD


Legend:
ERα = molecular target: T1, ERα; conditions: inhibition of estrogen receptor/coactivator recognition; read-out: K, values ERα; cited from earlier work
ERβ = ERβ (Homo sapiens, UniProt Q92731); conditions: cited from earlier work; for Ki: inhibition of estrogen receptor/coactivator recognition, read-out: K, values ERβ; for ERβ/ERα: ratio of K values
Chain of ERβ (Q92731 whole entry, species assumed): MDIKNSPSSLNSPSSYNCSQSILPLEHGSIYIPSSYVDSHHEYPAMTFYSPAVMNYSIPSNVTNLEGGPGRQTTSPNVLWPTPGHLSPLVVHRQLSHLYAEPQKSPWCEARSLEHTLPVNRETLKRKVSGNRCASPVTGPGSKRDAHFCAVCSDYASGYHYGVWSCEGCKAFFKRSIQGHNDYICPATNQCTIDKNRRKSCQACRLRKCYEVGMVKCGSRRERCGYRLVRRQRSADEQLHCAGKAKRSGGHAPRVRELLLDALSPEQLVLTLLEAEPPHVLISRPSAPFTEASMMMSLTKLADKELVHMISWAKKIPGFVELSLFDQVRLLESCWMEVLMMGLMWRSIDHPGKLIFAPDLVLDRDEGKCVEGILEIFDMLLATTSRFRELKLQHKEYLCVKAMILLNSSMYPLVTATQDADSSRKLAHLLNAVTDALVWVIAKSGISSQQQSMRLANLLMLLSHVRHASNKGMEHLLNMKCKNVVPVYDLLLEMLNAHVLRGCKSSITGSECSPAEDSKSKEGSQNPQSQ

[1] = molecular target: T2, native human ESRRG protein …; test: custom peptide microarray density chip
[2] = molecular target: T2, native human ESRRG protein …; test: peptide microarray, Iteration 1; bound ESRRG detected with fluorescent anti-ESRRG mAb
Procedure: (§1) Screening was carried out typically by hybridization of the protein (1 μg/mL) against the array for 1 h at 4° C.; detection of bound protein was carried out using a fluorescently labeled anti-ESRRG mAb. (Direct labeling of ESRRG and alternative detection strategies are equally valid).
Daughter candidate ligands and their new Tier 3 and/or Tier 1 based combinations were synthesized in situ on an addressable peptide microarray and screened against native human ESRRG protein in order to determine sequences that bind to this protein. Bound protein was detected by a fluorescently labeled anti-ESRRG mAb. […] Excess (100×) competing biological matrices (human serum, HSA/BSA or bacterial protein extract) were used as backgrounds to select for specific ligands to the protein. Other competing proteins can be added to background for specificity selection and directed evolution of ligands.

[3] = molecular target: T2, native human ESRRG protein …; test: peptide microarray, Iteration 2; bound ESRRG detected with fluorescent anti-ESRRG mAb
Procedure: as §1
Iterative sequence expansion and arraying of 10 highest binding ligands to ESRRG from Iteration 1 was carried out and the new peptide sequences were synthesized on an array and screened against the protein, as described above. In this step, the central 2 amino acids (core) in peptide sequences were maintained unchanged while outlying amino acids (2, 3, 6, and 7) were permuted (using Tier 1 and Tier 3 substitutions) in a ‘cipher’ or ‘combination’ lock approach.

Annexin A5 = molecular target: T3, Annexin A5; test: peptide density-array chip

Row | Molecule | Kd [1] | Kd (Annexin A5) | other results
1 | QAQQKSLLQQLLTE [Structure 10] |  |  | Ki (ERα): 450 nM; Ki (ERβ): 1100 nM; ERβ/ERα (ERβ): 2.4
2 | KHKILHRLLQDSS [Structure 4] |  |  | Ki (ERα): 380 nM; Ki (ERβ): 6900 nM; ERβ/ERα (ERβ): 18.1
3 | Ac-ANNLRLLH | 28.9 nM |  | 
4 | Ac-ANNSRLLH | 28.9 nM |  | Sample B (Probe) Signal [2]: 1480 fluorescence intensity units; log2 (Sample B/Sample A) [2]: 5.54
5 | Ac-ANNVRLLH | 30.5 nM |  | 
6 | Ac-IKQNHNNS | 12.5 nM |  | Sample B (Probe) Signal [2]: 794 fluorescence intensity units; log2 (Sample B/Sample A) [2]: 9.63
7 | Ac-IKQDHNNS | 15.7 nM |  | Sample B (Probe) Signal [2]: 701 fluorescence intensity units; log2 (Sample B/Sample A) [2]: 9.45
8 | Ac-LLHSSKSQ | 28.3 nM |  | Sample B (Probe) Signal [2]: 819 fluorescence intensity units; log2 (Sample B/Sample A) [2]: 5.4
9 | Ac-LLHKSKSQ | 28.5 nM |  | Sample B (Probe) Signal [2]: 962 fluorescence intensity units; log2 (Sample B/Sample A) [2]: 4.99
10 | Ac-QYPKMQRL | 17.9 nM |  | 
11 | Ac-LYLLKHHP | 29.1 nM |  | Sample B (Probe) Signal [3]: 2530 fluorescence intensity units; log2 (Sample B/Sample A) [3]: 3.05
12 | Ac-IFSEIRVY | 16.1 nM |  | 
13 | Ac-IFSKIRVY | 15.6 nM |  | 
14 | Ac-IFSEMRVY | 7.88 nM |  | 
15 | AYLHHAAG (Array-synthesised 8-mer) |  | 87.6 nM | 
16 | AYLHYAAG (Array-synthesised 8-mer) |  | 21.9 nM | 
17 | AYLHGAAG (Array-synthesised 8-mer) |  | 93.1 nM | 
18 | AYLVHAAG (Array-synthesised 8-mer) |  | 92.2 nM | 
19 | AYLGHAAG (Array-synthesised 8-mer) |  | 57.5 nM | 
20 | AYLGYAAG (Array-synthesised 8-mer) |  | 24.5 nM | 
21 | AYLMHAAG (Array-synthesised 8-mer) |  | 63 nM | 
22 | Ac-AANMFLLL | 29 nM |  | Sample B (Probe) Signal [2]: 1750 fluorescence intensity units; log2 (Sample B/Sample A) [2]: 5.37
23 | Ac-FWKGHFDF | 9.16 nM |  | Sample B (Probe) Signal [3]: 1460 fluorescence intensity units; log2 (Sample B/Sample A) [3]: 2.66

Row | Molecule | Kd [1] | Kd (Annexin A5) | other results
24 | SERYWARY (Array-synthesised 8-mer) |  | 91.7 nM | 
25 | SERCYARY (Array-synthesised 8-mer) |  | 301 nM | 
26 | SERYYARY (Array-synthesised 8-mer) |  | 361 nM | 
27 | SERYTARY (Array-synthesised 8-mer) |  | 86.9 nM | 
28 | SERCWARY (Array-synthesised 8-mer) |  | 218 nM | 
29 | SERYSARY (Array-synthesised 8-mer) |  | 82.5 nM | 
30 | Ac-FYNMYLLN | 27.4 nM |  | Sample B (Probe) Signal [3]: 1560 fluorescence intensity units; log2 (Sample B/Sample A) [3]: 2.63
31 | Ac-AIRGALMG | 27.4 nM |  | Sample B (Probe) Signal [2]: 851 fluorescence intensity units; log2 (Sample B/Sample A) [2]: 5.48
32 | Ac-AIRLFLMG | 13.8 nM |  | 
33 | Ac-AIRLHLMG | 22.4 nM |  | Sample B (Probe) Signal [2]: 943 fluorescence intensity units; log2 (Sample B/Sample A) [2]: 5.07
34 | Ac-NSLRKHLL | 24.4 nM |  | Sample B (Probe) Signal [2]: 856 fluorescence intensity units; log2 (Sample B/Sample A) [2]: 5.36
35 | Ac-NSLLKHLL | 20.7 nM |  | Sample B (Probe) Signal [2]: 14800 fluorescence intensity units; log2 (Sample B/Sample A) [2]: 7.65
36 | Ac-NSLKKHLL | 18.3 nM |  | Sample B (Probe) Signal [2]: 9220 fluorescence intensity units; log2 (Sample B/Sample A) [2]: 10.8
37 | Ac-VLLHYGLY | 27.4 nM |  | Sample B (Probe) Signal [3]: 1800 fluorescence intensity units; log2 (Sample B/Sample A) [3]: 2.37
38 | Ac-SLLFHLLK | 26.7 nM |  | 
39 | Ac-NIKVNANN | 17 nM |  | Sample B (Probe) Signal [2]: 599 fluorescence intensity units; log2 (Sample B/Sample A) [2]: 7.62
40 | Ac-VQYNYLQR | 19.3 nM |  | 
41 | Ac-IFSYVRVY | 15.4 nM |  | 
42 | Ac-IFSYPRVY | 17.5 nM |  | 
43 | Ac-NNSWRLHL | 29.4 nM |  | 
44 | Ac-NIKLFANN | 24.7 nM |  | 
45 | SERFFARY (Array-synthesised 8-mer) |  | 520 nM | 
